The text below walks through data of PMC5389509.

Substitutions are numbered along the chain they refer to.

Data set [1] addresses T1, YxiN S108C/N444C (UniProt P42305 1-479, C61A;C267A;S108C;N444C).
T1 sequence: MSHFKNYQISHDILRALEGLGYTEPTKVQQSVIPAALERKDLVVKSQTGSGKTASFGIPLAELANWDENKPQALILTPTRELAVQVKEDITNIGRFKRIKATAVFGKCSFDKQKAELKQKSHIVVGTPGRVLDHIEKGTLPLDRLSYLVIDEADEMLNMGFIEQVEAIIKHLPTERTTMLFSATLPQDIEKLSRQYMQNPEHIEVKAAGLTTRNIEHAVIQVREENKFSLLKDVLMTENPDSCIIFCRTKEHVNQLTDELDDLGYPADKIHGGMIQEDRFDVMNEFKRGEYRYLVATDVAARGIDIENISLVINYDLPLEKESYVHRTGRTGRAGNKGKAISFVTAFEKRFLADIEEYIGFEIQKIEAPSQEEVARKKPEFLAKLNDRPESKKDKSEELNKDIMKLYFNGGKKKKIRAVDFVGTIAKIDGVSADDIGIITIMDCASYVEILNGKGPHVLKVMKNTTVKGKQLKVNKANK
The data set is described as follows: fluorescence anisotropy. Background: Polarisation of emitted light reports the rotation of a fluorescent probe.

Data set [2] has as its target T2, YxiN A115C/S229C biotinylated (UniProt P42305 1-479, C61A;C267A;A115C;S229C).
T2 sequence: T1 sequence with C108S, A115C, S229C, C444N
Description: smFRET.

The target of another data set is T3, YxiN S108C/S229C (UniProt P42305 1-479, C61A;C267A;S108C;S229C).
T3 sequence: T1 sequence with S229C, C444N
Description: smFRET.

Another data set has as its target T4, YxiN S108C/N464C (UniProt P42305 1-479, C61A;C267A;S108C;N464C).
T4 sequence: T1 sequence with C444N, N464C
Description: smFRET.

The target of a further data set is T5, YxiN S108C/D429C (UniProt P42305 1-479, C61A;C267A;S108C;D429C).
T5 sequence: T1 sequence with D429C, C444N
Description: smFRET.

Data set [3] has as its target T1, YxiN S108C/N444C. The data set is described as follows: smFRET.

As to CGAGGUCCCAAGGGUUGGGCUGUUCGCCCAUU (structured_RNA) [32mer (FAM)], in the data set with YxiN S108C/N444C [1], the affinity, expressed as Kd, was 170 nM.
Regarding CGAGGUCCCAAGGGUUGGGCUGUUCGCCCAUU (structured_RNA) [32mer], the binding result (in data set [2]; with YxiN S108C/S229C; with YxiN S108C/N464C; with YxiN S108C/D429C) was “binds” in each case.
In the case of UGGGCUGUUCGCCCAU (structured_RNA) [32merHairpin], the binding result with YxiN S108C/S229C and in the data set with YxiN S108C/N444C [3] was “binds” throughout.
